{"source": "paper PMC5027563", "about": "“Functional Recovery of AQP2 Recessive Mutations Through Hetero-Oligomerization with Wild-Type Counterpart” (Scientific Reports, 2016)", "binders": {"B1": {"name": "Aquaporin-2 L22V (untagged) (natural protein)", "chain": "MWELRSIAFSRAVFAEFLATLVFVFFGLGSALNWPQALPSVLQIAMAFGLGIGTLVQALGHISGAHINPAVTVACLVGCHVSVLRAAFYVAAQLLGAVAGAALLHEITPADIRGDLAVNALSNSTTAGQAVTVELFLTLQLVLCIFASTDERRGENPGTPALSIGFSVALGHLLGIHYTGCSMNPARSLAPAVVTGKFDDHWVFWIGPLVGAILGSLLYNYVLFPPAKSLSERLAVLKGLEPDTDWEEREVRRRQSVELHSPQSLPRGTKA"}, "B2": {"name": "Aquaporin-2 A147T (untagged) (natural protein)", "chain": "B1 chain with V22L, A147T"}, "B3": {"name": "Aquaporin-2 R254Q (untagged) (natural protein)", "chain": "B1 chain with V22L, R254Q"}, "B4": {"name": "Aquaporin-2 T126M (untagged) (natural protein)", "chain": "B1 chain with V22L, T126M"}, "B5": {"name": "Aquaporin-2 D150E (untagged) (natural protein, human, UniProt P41181 1-271, looked up)", "chain": "B1 chain with V22L, D150E", "notes": "Aquaporin-2 (AQP2), human, recessive NDI mutation D150E from reported clinical cases, made by site-directed mutagenesis in pT7Ts; also called rec-AQP2; source: Xenopus laevis oocytes, cRNA injected; total membranes solubilised in 2% deoxycholate"}, "B6": {"name": "Aquaporin-2 V24A (untagged) (natural protein, human, UniProt P41181 1-271, looked up)", "chain": "B1 chain with V22L, V24A", "notes": "Aquaporin-2 (AQP2), human, recessive NDI mutation V24A from reported clinical cases, made by site-directed mutagenesis in pT7Ts; also called rec-AQP2; source: Xenopus laevis oocytes, cRNA injected; total membranes solubilised in 2% deoxycholate"}, "B7": {"name": "Aquaporin-2 R187C (untagged) (natural protein, human, UniProt P41181 1-271, looked up)", "chain": "B1 chain with V22L, R187C"}}, "key": {"[1]": {"biological_target": "T1, wild-type Aquaporin-2 (untagged) (human, UniProt P41181 1-271)", "T1 sequence (looked up)": "B1 chain with V22L"}, "[2]": {"biological_target": "T1, wild-type Aquaporin-2 (untagged)", "remark": "listed apart in the source"}, "[3]": {"biological_target": "T1, wild-type Aquaporin-2 (untagged)", "assay": "cell-based or functional assay"}, "[4]": {"biological_target": "T2, GFP-tagged wild-type Aquaporin-2 (human, UniProt P41181 1-271)", "T2 construct": "Aquaporin-2 (AQP2), human, wild type, from pT7Ts-GFP-AQP2 (subcloned through the pAc-GFP vector); 58 kDa with GFP; also called GFP-wt-AQP2; GFP-tagged-WT; source: Xenopus laevis oocytes, cRNA injected; total membranes solubilised in 2% deoxycholate", "T2 sequence (looked up)": "B1 chain with V22L", "assay": "co-IP; Xenopus oocytes co-injected with 0.5 ng mRNA of an untagged AQP2 variant and 1 ng (equimolar) of a GFP-tagged form, 24 h; total membranes solubilised in 2% deoxycholate in PBS, 100,000 x g supernatant; IP with goat anti-GFP and protein-G magnetic beads at room temperature; blot with anti-AQP2 of the untagged 29 kDa band; densitometry in % of wt-AQP2, 4 assays", "conditions": "partners not purified"}, "[5]": {"biological_target": "T3, GFP-tagged Aquaporin-2 D150E (human, UniProt P41181 1-271, D150E)", "T3 construct": "Aquaporin-2 (AQP2), human, recessive NDI mutation D150E, GFP-tagged form; The methods describe only how pT7Ts-GFP-AQP2 (wild type) was made; also called GFP-tagged D150E; source: Xenopus laevis oocytes, cRNA injected; total membranes solubilised in 2% deoxycholate", "T3 sequence (looked up)": "B1 chain with V22L, D150E", "assay": "co-IP; Xenopus oocytes co-injected with 0.5 ng mRNA of an untagged AQP2 variant and 1 ng (equimolar) of a GFP-tagged form, 24 h; total membranes solubilised in 2% deoxycholate in PBS, 100,000 x g supernatant; IP with goat anti-GFP and protein-G magnetic beads at room temperature; blot with anti-AQP2 of the untagged 29 kDa band; densitometry in % of wt-AQP2, 4 assays", "conditions": "partners not purified"}, "[6]": {"biological_target": "T4, GFP-tagged Aquaporin-2 V24A (human, UniProt P41181 1-271, V24A)", "T4 construct": "Aquaporin-2 (AQP2), human, recessive NDI mutation V24A, GFP-tagged form; The methods describe only how pT7Ts-GFP-AQP2 (wild type) was made; also called GFP-tagged V24A; source: Xenopus laevis oocytes, cRNA injected; total membranes solubilised in 2% deoxycholate", "T4 sequence (looked up)": "B1 chain with V22L, V24A", "assay": "co-IP; Xenopus oocytes co-injected with 0.5 ng mRNA of an untagged AQP2 variant and 1 ng (equimolar) of a GFP-tagged form, 24 h; total membranes solubilised in 2% deoxycholate in PBS, 100,000 x g supernatant; IP with goat anti-GFP and protein-G magnetic beads at room temperature; blot with anti-AQP2 of the untagged 29 kDa band; densitometry in % of wt-AQP2, 4 assays", "conditions": "partners not purified"}}, "note": "Where a chain is given by its changes, count along the chain named. In names and notes the source's numbering stands.", "data": [{"binder": "B1", "values": [{"measurement": "net increase (gain of function) in water permeability (Pf) of oocytes when expressed along wt-AQP2, in % of the wt-AQP2 activity (% of the wt-AQP2 activity)", "setting": "[1]", "value": 106}]}, {"binder": "B2", "values": [{"measurement": "net increase (gain of function) in water permeability (Pf) of oocytes when expressed along wt-AQP2, in % of the wt-AQP2 activity (% of the wt-AQP2 activity)", "setting": "[1]", "value": 45}]}, {"binder": "B3", "values": [{"measurement": "water permeability (Pf) of oocytes injected with 1 ng mRNA mixtures of wt/mut ratios 4/0 to 0/4, in % of pure wt-AQP2; the printed value is of the 2/2 ratio; dominant negative effect (% of pure wt-AQP2)", "setting": "[2]", "value": 14}]}, {"binder": "B4", "values": [{"measurement": "net increase (gain of function) in water permeability (Pf) of oocytes when expressed along wt-AQP2, in % of the wt-AQP2 activity (% of the wt-AQP2 activity)", "setting": "[1]", "value": 42}]}, {"binder": "B5", "values": [{"measurement": "gain of function in water permeability (Pf) of oocytes on coexpression with wt-AQP2 (specific activity with wt-AQP2 minus without), in % of wt-AQP2 activity", "setting": "[3]", "value": "65.2 % of wt-AQP2 activity"}, {"measurement": "co-precipitated untagged band, densitometry in % of wt-AQP2 (wt/rec heteromers)", "setting": "[4]", "value": "86 % of wt-AQP2"}, {"measurement": "co-precipitated untagged band, densitometry in % of wt-AQP2 (rec/rec homomers)", "setting": "[5]", "value": "30 % of wt-AQP2"}]}, {"binder": "B6", "values": [{"measurement": "gain of function in water permeability (Pf) of oocytes on coexpression with wt-AQP2 (specific activity with wt-AQP2 minus without), in % of wt-AQP2 activity", "setting": "[3]", "value": "63.9 % of wt-AQP2 activity"}, {"measurement": "water permeability (Pf) of oocytes injected with 1 ng mRNA mixtures of wt/mut ratios 4/0 to 0/4, in % of pure wt-AQP2; the printed value is of the 2/2 ratio", "setting": "[3]", "value": "87 % of pure wt-AQP2"}, {"measurement": "co-precipitated untagged band, densitometry in % of wt-AQP2 (rec/rec homomers)", "setting": "[6]", "value": "26 % of wt-AQP2"}, {"measurement": "co-precipitated untagged band, densitometry in % of wt-AQP2 (wt/rec heteromers)", "setting": "[4]", "value": "75 % of wt-AQP2"}]}, {"binder": "B7", "values": [{"measurement": "gain of function in water permeability (Pf) of oocytes on coexpression with wt-AQP2 (specific activity with wt-AQP2 minus without), in % of wt-AQP2 activity; not functionally recovered", "setting": "[3]", "value": "0.4 % of wt-AQP2 activity"}]}]}
